# In patent US20220378912A1 (Novartis, published 2022):
# T1: recombinant human P-selectin (human, UniProt P16109 42-771, limits assumed)
# T1 construct: Coated on ELISA plates
# T1 sequence (looked up): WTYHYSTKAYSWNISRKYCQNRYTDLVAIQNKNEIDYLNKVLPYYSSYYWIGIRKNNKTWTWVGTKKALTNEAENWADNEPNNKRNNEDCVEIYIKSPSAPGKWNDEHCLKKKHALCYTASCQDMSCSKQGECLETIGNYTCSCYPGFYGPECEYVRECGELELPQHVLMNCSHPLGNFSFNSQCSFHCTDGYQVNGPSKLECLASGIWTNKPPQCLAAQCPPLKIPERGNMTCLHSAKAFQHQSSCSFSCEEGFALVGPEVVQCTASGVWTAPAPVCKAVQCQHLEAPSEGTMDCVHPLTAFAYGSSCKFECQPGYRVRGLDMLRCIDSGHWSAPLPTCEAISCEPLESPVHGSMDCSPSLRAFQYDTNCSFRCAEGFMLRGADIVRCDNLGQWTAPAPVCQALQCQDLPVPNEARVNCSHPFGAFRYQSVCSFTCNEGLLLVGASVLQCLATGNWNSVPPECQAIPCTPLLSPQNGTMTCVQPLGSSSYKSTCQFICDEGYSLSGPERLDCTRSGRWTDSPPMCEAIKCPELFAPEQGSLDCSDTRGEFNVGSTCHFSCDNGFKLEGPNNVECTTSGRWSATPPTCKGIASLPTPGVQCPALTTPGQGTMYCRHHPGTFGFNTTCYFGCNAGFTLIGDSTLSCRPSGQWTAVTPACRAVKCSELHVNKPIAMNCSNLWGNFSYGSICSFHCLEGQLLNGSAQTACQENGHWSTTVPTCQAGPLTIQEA
# T2: P-selectin fused to immunoglobulin (Psel-Ig) (UniProt P16109 42-771, limits assumed)
# T2 construct: also called spiked P-selectin; not shown: immunoglobulin part of the fusion
# T2 sequence (looked up): T1 sequence (looked up)
# B1: SEG101 (crizanlizumab), humanised monoclonal antibody against human P-selectin (antibody, human IgG2, kappa, V domains shown)
# VH: QVQLVQSGAEVKKPGASVKVSCKVSGYTFTSYDINWVRQAPGKGLEWMGWIYPGDGSIKYNEKFKGRVTMTVDKSTDTAYMELSSLRSEDTAVYYCARRGEYGNYEGAMDYWGQGTLVTVSS
# VL: DIQMTQSPSSLSASVGDRVTITCKASQSVDYDGHSYMNWYQQKPGKAPKLLIYAASNLESGVPSRFSGSGSGTDFTLTISSLQPEDFATYYCQQSDENPLTFGGGTKVEIKR
# notes: also called SelG1; main peak
# B2: homo-iso-crizanlizumab (antibody, human IgG2, kappa, V domains shown)
# VH: B1 VH
# VL: B1 VL
# modifications: isoaspartic acid at position 32
# notes: Aspartic acid at position 32 of both light chains replaced by isoaspartic acid; also called iso-crizanlizumab (both light chains)
# B3: D-succinimide of crizanlizumab (antibody, human IgG2, kappa)
# heavy: QVQLVQSGAEVKKPGASVKVSCKVSGYTFTSYDINWVRQAPGKGLEWMGWIYPGDGSIKYNEKFKGRVTMTVDKSTDTAYMELSSLRSEDTAVYYCARRGEYGNYEGAMDYWGQGTLVTVSSASTKGPSVFPLAPCSRSTSESTAALGCLVKDYFPEPVTVSWNSGALTSGVHTFPAVLQSSGLYSLSSVVTVTSSNFGTQTYTCNVDHKPSNTKVDKTVERKCCVECPPCPAPPVAGPSVFLFPPKPKDTLMISRTPEVTCVVVDVSHEDPEVQFNWYVDGMEVHNAKTKPREEQFNSTFRVVSVLTVVHQDWLNGKEYKCAVSNKGLPAPIEKTISKTKGQPREPQVYTLPPSREEMTKNQVSLTCLVKGFYPSDIAVEWESNGQPENNYKTTPPMLDSDGSFFLYSKLTVDKSRWQQGNVFSCSVMHEALHNHYTQKSLSLSPGK
# light 1: DIQMTQSPSSLSASVGDRVTITCKASQSVDYDGHSYMNWYQQKPGKAPKLLIYAASNLESGVPSRFSGSGSGTDFTLTISSLQPEDFATYYCQQSDENPLTFGGGTKVEIKRTVAAPSVFIFPPSDEQLKSGTASVVCLLNNFYPREAKVQWKVDNALQSGNSQESVTEQDSKDSTYSLSSTLTLSKADYEKHKVYACEVTHQGLSSPVTKSFNRGEC
# light 2: B3 light 1
# modifications: succinimide at position 32
# notes: One light chain with succinimide, the other with aspartic acid at position 32; also called D-Succi-crizanlizumab
# B4: isoD-succinimide of crizanlizumab (antibody, human IgG2, kappa)
# heavy: B3 heavy
# light 1: B3 light 1
# light 2: B3 light 1
# modifications: isoaspartic acid at position 32; succinimide at position 32
# notes: One light chain with succinimide, the other with isoaspartic acid at position 32; also called isoD-Succi-crizanlizumab
# B5: hetero-iso-crizanlizumab (antibody, human IgG2, kappa)
# heavy: B3 heavy
# light 1: B3 light 1
# light 2: B3 light 1
# modifications: isoaspartic acid at position 32
# notes: Aspartic acid at position 32 of only one light chain replaced by isoaspartic acid; also called iso-crizanlizumab (one light chain)
# Molecular target: T1, recombinant human P-selectin
# Assay: P-selectin binding assay of Example 2 (ELISA), relative %; CZE peak comprising the variant
# Protocol: In the ELISA, potency and identity of SEG101 samples are measured based on their ability to bind recombinant human P-selectin. ELISA plates are coated with recombinant human P-selectin, and graded amounts of SEG101 are added. Bound SEG101 is quantified using an anti-human IgG antibody coupled to horseradish peroxidase followed by the addition of a colorimetric substrate. Results of the colorimetric reaction are measured by light absorption. The potency of a SEG101 test sample is quantified by comparing its ability to bind P-selectin to that of a SEG101 reference standard. The samples and the standard are normalized on the basis of protein content. Relative potency is calculated using a parallel line assay according to the European Pharmacopoeia. The final result is expressed as relative potency (in percent) of a sample compared to the reference standard.
row,Binder,P-selectin binding affinity [%]
1,B1,90
2,B2,119
3,B3,78
4,B4,63
5,B5,105

# Molecular target: T2, P-selectin fused to immunoglobulin …
# Assay: SPR competition: dilution series of crizanlizumab and any variants thereof inhibiting Psel-Ig binding to immobilised biotinylated GSP-6 (standard inhibition curve)
# Protocol: An SPR-based method was used to measure ex vivo % P-selectin inhibition of crizanlizumab in human serum samples from human donors treated with crizanlizumab. This PD assay measured the ability of crizanlizumab and it variants in serum to block P-selectin (antigen; ligand) binding to PSGL-1 (ligand receptor). Blockage by crizanlizumab and any variants thereof was measured as % inhibition of spiked P-selectin fused to immunoglobulin (Psel-Ig) binding to glycosulfopeptide 6 (GSP-6), a peptide analogue mimicking the PSGL-1 binding domain. For example, streptavidin was immobilized on 2 channels (FC-2 and FC-3) of the used biosensor chip using standard amine coupling followed by injection of biotinylated GSP-6 to immobilize the peptide for analysis. A reference channel (FC-1) was prepared by biotin-blocking streptavidin. The pre-treatment samples established the maximum binding for each subject and this was used as the basis for calculating % inhibition using the post-dose serum samples from the subject at various time points. Quantified crizanlizumab and any variants thereof in a series of dilutions were used to generate standard inhibitition curve, showing an IC₅₀ value of 5.2 μg/mL for crizanlizumab under all conditions.
row,Binder,IC50 [µg/mL]
1,B1,5.2
